± gives the uncertainty stated by the source.
Test: protein stability index of a GFP-peptide fusion (yeast GPS) (PSI 1-4); higher = more stable; sorted into four equal gates, so the index is relative within each strain
Procedure, shortened: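 Tiled yeast protein peptides of 17 residues were each joined downstream of GFP, on plasmids that also express Cherry. The pooled library was maintained in yeast, and mid-log cultures in leucine-free medium were sorted into four equal gates on the GFP/Cherry ratio. Plasmids from every gate were amplified by PCR and sequenced on Illumina, with barcodes linking reads to strains. The protein stability index of a peptide is its gate-number-weighted read frequency summed over the gates.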

Row | Sequence | protein stability index (doa10∆) | protein stability index (san1∆) | protein stability index (pdr5∆) | protein stability index (ubr1∆)
1 | NKLLRRKLMEMENILQR [YIL149C/MLP2] | 3.41 ± 0.2 | 3.33 ± 0.11 |  | 
2 | YNVCDTSKSLVKRYRLA [SIN4] | 2.39 ± 0.055 | 2.58 ± 0.062 | 2.81 ± 0.058 | 3.16 ± 0.042
3 | QNFAEEDDSSNSCFSDG [REC8] | 2.56 ± 0.15 | 2.58 ± 0.12 | 2.59 ± 0.1 | 3.33 ± 0.12
4 | DHAIVTSPTMPDYYVSI [RPT2] | 2.62 ± 0.11 | 2.58 ± 0.063 | 2.67 ± 0.17 | 2.86 ± 0.12
5 | RCYQPFELFDNKTAHLS [SNU114] | 2.27 ± 0.1 | 2.53 ± 0.061 | 2.71 ± 0.08 | 2.24 ± 0.041
6 | SLSDEVMRNEIRITSLQ [SIR4] | 2.92 ± 0.065 | 2.81 ± 0.067 | 2.48 ± 0.064 | 2.52 ± 0.077
7 | SETFLQFYVKRWKRFTI [CDC53] | 2.39 ± 0.1 | 1.73 ± 0.1 | 2.74 ± 0.063 | 2.3 ± 0.074
8 | NLLESITKLLEINLSKI [YCS4] | 2.73 ± 0.057 | 2.94 ± 0.036 | 2.55 ± 0.043 | 2.77 ± 0.034
9 | PSYAERQSSDESDNYRL [YML031W/NDC1] | 2.62 ± 0.049 | 2.75 ± 0.057 | 2.32 ± 0.043 | 2.7 ± 0.036
10 | LRNLHMKRMVAQWERSK [SNF12] | 2.88 ± 0.076 | 2.89 ± 0.067 | 2.89 ± 0.1 | 2.88 ± 0.086
11 | VIRIPMQENDKINQERL [CSI1] | 2.42 ± 0.083 | 2.37 ± 0.11 | 2.83 ± 0.085 | 2.82 ± 0.072
12 | NGEIKGENIDADNDGPR [SNF2] | 3.07 ± 0.074 | 3.49 ± 0.063 | 3.48 ± 0.069 | 3.08 ± 0.073
13 | VLCTRLRLSNFFTIDHF [SIR2] | 2.19 ± 0.064 | 1.5 ± 0.097 | 1.5 ± 0.057 | 1.28 ± 0.033
14 | GAVGLKDLTLCRYSCLA [YCS4] | 2.4 ± 0.095 | 1.94 ± 0.12 | 2.42 ± 0.1 | 2.13 ± 0.085
15 | DNSATSYYELETIIFDS [RRI1] | 3.19 ± 0.076 | 3.11 ± 0.042 | 3.17 ± 0.055 | 3.06 ± 0.041
16 | VTAKLLGFTPGELRSYL [FAS1] | 2.91 ± 0.073 | 2.89 ± 0.1 | 2.97 ± 0.11 | 3.1 ± 0.093
17 | LLERTREIHNEAESQLR [FAS2] | 2.97 ± 0.12 | 2.21 ± 0.22 | 2 ± 0.087 | 2.54 ± 0.08
18 | LNSLKDERSQGEKNFTS [SMC4] | 3.41 ± 0.12 | 3.05 ± 0.087 | 3.3 ± 0.25 | 3.5 ± 0.11
19 | KILVLTGAGVSTSLGIP [SIR2] | 2.35 ± 0.042 | 2.76 ± 0.054 | 2.34 ± 0.057 | 2.69 ± 0.051
20 | KGVGRRYSNLVCKKADV [RPS18A] | 3.46 ± 0.2 | 1.74 ± 0.1 | 2.37 ± 0.11 | 2.49 ± 0.074
21 | FYLYMLVQKFGGADQVT [SWI1] |  |  | 1.35 ± 0.19 | 1.75 ± 0.14
22 | QQSTDADEDDEDAKYVI [RPT1] |  |  | 3.56 ± 0.27 | 3.8 ± 0.14
23 | QQQQDLQQQQQVVTTVA [SNF6] | 1.55 ± 0.097 | 1.87 ± 0.23 | 1.87 ± 0.083 | 1.54 ± 0.092
24 | TVLFFIGVRCYEAYPNT [FAS1] | 1.21 ± 0.054 | 1.66 ± 0.1 | 1.23 ± 0.049 | 1.8 ± 0.043
25 | VLILLHAERDLALAETL [SRP68] | 2.3 ± 0.06 | 2.96 ± 0.058 | 3.04 ± 0.089 | 3.11 ± 0.057
26 | LDSTGFDSTAFNATVDE [MED2] | 3.08 ± 0.048 | 3.06 ± 0.053 | 3.27 ± 0.053 | 3.07 ± 0.038
27 | YVTKPMVNESDGVTHAL [RPB2] | 3.2 ± 0.088 | 2.94 ± 0.081 | 3.28 ± 0.087 | 3.36 ± 0.082
28 | NVRSSVLQKVIEWAEHH [SKP1] | 2.4 ± 0.096 | 2.4 ± 0.085 | 2.91 ± 0.11 | 2.03 ± 0.099

Row | Sequence | protein stability index (doa10∆) | protein stability index (san1∆) | protein stability index (pdr5∆) | protein stability index (ubr1∆)
29 | PEWMILTCLPVPPPPVR [RPO21] |  |  | 3.52 ± 0.17 | 
30 | GRLEIFKIHTAKVKKTG [RPT4] | 2.13 ± 0.11 | 2.33 ± 0.19 | 2.89 ± 0.12 | 2.51 ± 0.097
31 | FLNHAFDYMNRYWVQKE [CDC53] | 2.1 ± 0.056 | 1.89 ± 0.067 | 2.48 ± 0.056 | 1.94 ± 0.046
32 | EQSVKTQNSRHYMVHEA [LIN1] | 2.62 ± 0.25 | 2.49 ± 0.089 | 2.82 ± 0.11 | 
33 | KPGSTVMLLGTPDANLI [UBP6] |  |  | 3.58 ± 0.24 | 3.38 ± 0.12
34 | DFNQAFEGTDDNEEASV [BRN1] | 3.09 ± 0.14 | 3.39 ± 0.15 | 3.17 ± 0.13 | 3.53 ± 0.12
35 | NGVVKKAAAGAGSAALK [RPO31] | 3.51 ± 0.13 | 3.47 ± 0.12 | 3.11 ± 0.27 | 
36 | YLNDLMITKRILEVGAL [RPN12] | 1.29 ± 0.16 |  |  | 
37 | PSTGGVKKPHRYKPGTV [HHT1] | 1.59 ± 0.065 | 1.64 ± 0.097 | 1.62 ± 0.057 | 1.81 ± 0.072
38 | CIFNFLQQQTPVTIWLF [SME1] | 1.18 ± 0.069 | 1.25 ± 0.084 | 1.47 ± 0.066 | 1.15 ± 0.052
39 | GNMCRGGRMFAPTKTWR [RPL4A] | 2.92 ± 0.078 | 3.04 ± 0.063 | 2.61 ± 0.12 | 2.34 ± 0.053
40 | EILGINLANEQPVLEKP [SIR4] | 3 ± 0.068 | 3.21 ± 0.045 | 3.2 ± 0.052 | 3.11 ± 0.046
41 | LPTNPTLDKPNAEATKE [CSE2] | 2.91 ± 0.072 | 2.89 ± 0.046 | 2.87 ± 0.062 | 2.85 ± 0.066
42 | KDRFDIDEKSQFVETIV [RPN2] | 2.15 ± 0.05 | 1.93 ± 0.066 | 2.48 ± 0.069 | 2.17 ± 0.059
43 | QDRLSDLIHKSEAFPSL [SMC4] | 3.31 ± 0.15 | 3.07 ± 0.077 | 2.7 ± 0.11 | 3.03 ± 0.088
44 | NKKSEENEMIKPMNKGQ [SWP82] | 3.09 ± 0.18 | 3.39 ± 0.067 | 3.41 ± 0.095 | 3.39 ± 0.26
45 | EIINNKTSSQTSLSSKD [YMR153W/NUP53] | 2.33 ± 0.067 | 2.34 ± 0.12 | 2.12 ± 0.073 | 2.45 ± 0.045
46 | SLASCLRSTEYSKSFEQ [POP1] | 2.58 ± 0.11 | 2.89 ± 0.083 | 2.88 ± 0.13 | 2.76 ± 0.12
47 | ASGLLRAYLSHSNRCIV [CSN12] | 1.85 ± 0.04 | 1.7 ± 0.063 | 1.56 ± 0.04 | 1.25 ± 0.027
48 | LMVFNDDTKNQDSMSKG [YGR119C/NUP57] | 3.04 ± 0.08 | 2.94 ± 0.18 | 3.46 ± 0.16 | 3.05 ± 0.071
49 | QDEEQTEHLTELSDNEE [YCG1] | 3.29 ± 0.09 | 3.33 ± 0.054 | 3.37 ± 0.075 | 3.02 ± 0.062
50 | NIDETSDEVSRGIPRLS [SMC4] | 3.06 ± 0.2 | 2.97 ± 0.22 |  | 
51 | ANVIKALAFCEIGITQQ [RRP4] | 1.36 ± 0.07 | 1.76 ± 0.16 | 2 ± 0.079 | 2.26 ± 0.075
52 | SPLYMDTETFDTVNSAL [YML103C/NUP188] | 3.11 ± 0.14 | 3.18 ± 0.074 | 3.27 ± 0.14 | 3.21 ± 0.058
53 | LEDYVPHQSPDATRVFV [RPB2] | 2.82 ± 0.055 | 2.97 ± 0.04 | 2.87 ± 0.055 | 3.07 ± 0.04
54 | GKEFEARNLIEDEDDGE [RPC53] | 3.46 ± 0.16 | 3.41 ± 0.1 | 3.58 ± 0.14 | 2.94 ± 0.14
55 | TTTNTDQNNATMGEETA [SNF12] | 3.3 ± 0.076 | 3.4 ± 0.076 | 3.37 ± 0.11 | 3.21 ± 0.1

— the supplement of paper PMC9732359
